Assay results taken from US20210388105A1 (ELPISCIENCE SUZHOU BIOPHARMA, published 2021).
Where a chain is given by its changes, count along the chain named.

T1: human CD39 (full length, on cells) (human, UniProt P49961 1-510)
T1 construct: Recombinant on CHOK1-hCD39 cells or natural on SK-MEL-28, SK-MEL-5 and MOLP-8 cells; the cell line is named under assay; also called hCD39; ENTPD1
T1 sequence: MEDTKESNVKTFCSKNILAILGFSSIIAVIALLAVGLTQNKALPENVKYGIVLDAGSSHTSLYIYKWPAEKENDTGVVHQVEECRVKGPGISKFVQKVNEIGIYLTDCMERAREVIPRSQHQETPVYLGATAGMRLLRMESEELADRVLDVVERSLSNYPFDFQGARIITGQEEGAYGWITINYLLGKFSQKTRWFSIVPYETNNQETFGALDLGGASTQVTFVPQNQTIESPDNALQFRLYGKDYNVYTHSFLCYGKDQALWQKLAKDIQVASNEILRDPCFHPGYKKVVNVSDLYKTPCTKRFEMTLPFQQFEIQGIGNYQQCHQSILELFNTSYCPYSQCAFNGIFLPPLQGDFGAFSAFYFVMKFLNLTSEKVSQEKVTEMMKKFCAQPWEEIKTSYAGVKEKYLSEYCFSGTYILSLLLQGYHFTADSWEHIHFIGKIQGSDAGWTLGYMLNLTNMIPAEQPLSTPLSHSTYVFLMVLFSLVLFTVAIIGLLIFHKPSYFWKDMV

T2: KW27-2 (human CD39 mutant, C-terminal EGFP) (human, UniProt P49961 1-510)
T2 construct: expressed on HEK293F cells; not shown: C-terminal EGFP fusion (vector pCMV3-GFPSpark)
T2 chain: T1 sequence with V81S, E82A, R111A, V115A

T3: KW27-16 (human CD39 mutant, C-terminal EGFP) (human, UniProt P49961 1-510)
T3 construct: expressed on HEK293F cells; not shown: C-terminal EGFP fusion (vector pCMV3-GFPSpark)
T3 chain: T1 sequence with K5A, E100A, D107A

B1: Antibody 9-8B (antibody, V domains shown)
VH: QIQLVQSGPELKKPGETVKISCKASGYTFTHYGMNWVKQAPGKGLKWMGWINTYTGELTYADDFKGRFAFSLETSASTAYLQINNLKNEDTATYFCARRAYYRYDYVMDYWGQGTSVTVSS
VL: DIVMTQSQKFMSTSVGDRVSVTCKASHNVGTNVAWYQQKPGQSPKALIYSASYRYSGVPGRFTGSGSGTDFTLTISNVQSEDLAEYFCHQYNNYPYTFGGGTKLEIK
B2: mAb14 (antibody, V domains shown)
VH: EVKLEESGGGLVQPGGSMKLSCVASGFTFSKYWMNWVRQSPEKGLEWVAEIRLKSNKYGTHYAESVKGRFTISRDDSKNNVYLQMNNLRPEDTGIYYCTTQLDLYWFFDVWGAGTTVTVSS
VL: DIVMTQSPAILSVTPGDRVSLSCRASQSISDYLHWYQQKSHESPRLLIKYASQSISGIPSRFSGSGSGSNFTLSINSVEPEDVGVYFCQNGHSLPLTFGAGTKLELR
notes: mouse hybridoma antibody
B3: c34 (antibody, V domains shown)
VH: EIQVQQSGPELVKPGASVKVSCKASGYSFTDYNMYWVKQSHGKSLEWIGFIDPYNGYTSYNQKFKGKATLTIDKSSSTAFMHLNSLTSEDSAVYYCAIYGYDDAYYFDYWGQGTTLTVSS
VL: QIVLTQSPAIMSASPGEKVTITCSATSSVSYMHWFRQKPGTSPKLWIYSTSNLASGVPARFSGSGSGTSYSLTISRMAAEDAATYYCQQRITYPFTFGSGTKLEIT
notes: its making is not described; also called chimeric antibody c34
B4: hu23.H5L5 (antibody, V domains shown)
VH: QVQLVQSGAEVKKPGASVKVSCKASGYNLKDTFLHWVRQAPGQGLEWMGRIDPANGNIKYDPKFQGRVTITADTSANTAYMELISLRSEDTAVYYCANSPYYYGSGYRIFDVWGQGTTVTVSS
VL: QIVLTQSPATLSLSPGERATLSCSAFSSVNYMHWYQQKPGQAPRLLIYTTSNLASGIPTRFSGSGSGTSYTLTISSLEPEDFAVYYCQQRSTYPFTFGQGTKLEIK
notes: humanized c23
B5: Antibody T895 (antibody, V domains shown)
VH: EVQLQQSGPELVKPGASVKMSCKASGYTFTDYNMHWVKQSHGRTLEWIGYIVPLNGGSTFNQKFKGRATLTVNTSSRTAYMELRSLTSEDSAAYYCARGGTRFAYWGQGTLVTVSA
VL: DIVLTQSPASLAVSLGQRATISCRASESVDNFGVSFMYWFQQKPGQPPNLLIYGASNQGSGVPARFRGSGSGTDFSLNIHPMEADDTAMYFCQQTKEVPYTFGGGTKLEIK
notes: also called 31895

Target: T1, human CD39 (full length, on cells)
Assay: FACS competition on CHOK1-hCD39; competitor mAb19-Alexa488
Procedure: (§1) Anti-CD39 antibodies were labeled using Alex488 labeling kit and were diluted in a series of concentrations, before mixing with CHOK1-hCD39 cells to test binding EC₅₀using FACS. The non-labeled antibodies were tested for their blocking efficacy to the labelled ones. Briefly, mononuclear CHOK1-hCD39 cells were prepared to 2×10⁶/ml and plated into 96 well at 50 μl/well, then mixed with antibodies gradients to final volume at 100 μl, and then equal volume of Alex488 label antibodies were added at two folds EC80 concentration. 96 well plates were incubated at 4° C. for 1 hour, and spun down and washed 3 times with 200 μl FACS buffer. The FACS analysis was performed on FACScelesta machine and data was analyzed by Flowjo software. The blocking percentages were calculated and those having above 80% competition rate were allocated into one epitope group, compared with the non-competing well (Alex488 labeled antibody only).
(§2) Based on the competition results, the 4 anti-CD39 hybridoma antibodies (mAb14, mAb19, mAb21, mAb23) can be grouped into 4 different epitope groups, as shown in Table 11.

blocking percentage	Binder
19%	B1
6%	B2

Target: T1, human CD39 (full length, on cells)
Assay: FACS competition on CHOK1-hCD39; competitor mAb23-Alexa488
Procedure: as §1, §2

blocking percentage	Binder
100%	B1
-26%	B2

Target: T2, KW27-2 (human CD39 mutant, C-terminal …)
Assay: FACS on transfected HEK293F cells, relative binding = AlexaFluor647 / GFP
Procedure: (§3) Briefly, the human CD39 mutants were generated by gene synthesis and then cloned into an expression vector pCMV3-GFPSpark. The vectors containing the validated mutated sequences were prepared and transfected into HEK293F cells. Three days post transfection, the cells were collected to testing EGFP for transgene expression. A range of dosages of antibodies (start from 100 nM, 3-folds dilution, 11 points) were tested on the 20 generated mutants and stained by AlexFluor647 labelled anti-hIgG by FACS. Antibody binding was descripted as relative binding which is derived from AlexFluor647 intensity divided by GFP intensity.

binding result	Binder
binds	B1
binds	B3
binds	B4
binds	B5

Target: T3, KW27-16 (human CD39 mutant, C-terminal …)
Assay: as above
Procedure: as §3

binding result	Binder
binds	B1
no binding	B3
binds	B4
binds	B5
